{"source": "paper PMC6224509", "about": "(2018)", "assay_in_all_cases": "SPR; 37°C", "key": {"[1]": {"biological_target": "human 4-1BB residues 24–186, wild type, His–Avi (human, UniProt Q07011 24-186)", "sequence (Q07011 24-186)": "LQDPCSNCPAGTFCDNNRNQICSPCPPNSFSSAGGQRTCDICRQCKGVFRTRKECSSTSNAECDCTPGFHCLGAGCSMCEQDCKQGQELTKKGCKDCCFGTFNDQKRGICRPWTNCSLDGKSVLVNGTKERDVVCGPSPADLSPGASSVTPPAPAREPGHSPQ"}, "[2]": {"biological_target": "human 4-1BB residues 24–186 M101R, His–Avi (human, UniProt Q07011 24-186, M101R)", "sequence (Q07011 24-186 M101R)": "as the sequence (Q07011 24-186) above, with M78R counted along it"}, "[3]": {"biological_target": "human 4-1BB residues 24–186 I132R, His–Avi (human, UniProt Q07011 24-186, I132R)", "sequence (Q07011 24-186 I132R)": "as the sequence (Q07011 24-186) above, with I109R counted along it"}}, "data": [{"binder": "urelumab (fully human IgG4 mAb) (antibody, V domains shown) VH: QVQLQQWGAGLLKPSETLSLTCAVYGGSFSGYYWSWIRQSPEKGLEWIGEINHGGYVTYNPSLESRVTISVDTSKNQFSLKLSSVTAADTAVYYCARDYGPGNYDWYFDLWGRGTLVTVSS VL: EIVLTQSPATLSLSPGERATLSCRASQSVSSYLAWYQQKPGQAPRLLIYDASNRATGIPARFSGSGSGTDFTLTISSLEPEDFAVYYCQQRSNWPPALTFGGGTKVEIK", "values": [{"measurement": "koff", "setting": "[1]", "value": 0.014, "unit": "s⁻¹"}, {"measurement": "koff", "setting": "[2]", "value": 0.0095, "unit": "s⁻¹"}, {"measurement": "koff", "setting": "[3]", "value": 0.012, "unit": "s⁻¹"}]}]}
